From patent US20210380714A1

Key:
[1] = target: recombinant human soluble MSLN (rHuMSLN sol.) (human) (UniProt Q13421); test: Biacore, soluble human MSLN
[2] = target: native human MSLN expressed on the cell surface (N87 / NCI-N87 tumor cells) (human) (UniProt Q13421); test: KinExA, native hu MSLN on cells
[3] = target: recombinant human soluble MSLN (rHuMSLN sol.) (human) (UniProt Q13421); test: published value quoted in the Biacore column; the sheet does not name its source

recombinant human soluble MSLN (rHuMSLN sol.) (human), sequence (Q13421 296-606 limits assumed): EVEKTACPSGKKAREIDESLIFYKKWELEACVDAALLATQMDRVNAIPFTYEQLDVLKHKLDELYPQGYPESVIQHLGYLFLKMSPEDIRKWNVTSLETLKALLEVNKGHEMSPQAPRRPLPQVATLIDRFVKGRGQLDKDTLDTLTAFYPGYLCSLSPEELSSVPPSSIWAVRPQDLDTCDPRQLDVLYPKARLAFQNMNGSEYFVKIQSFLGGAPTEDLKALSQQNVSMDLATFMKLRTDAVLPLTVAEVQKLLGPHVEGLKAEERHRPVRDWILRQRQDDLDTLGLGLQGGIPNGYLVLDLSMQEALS
native human MSLN expressed on the cell surface (N87 / NCI-N87 tumor cells) (human), sequence (Q13421 296-606 limits assumed): as above

With MORAb-009 (antibody) the Kd [1] was 0.16 nM, the Kd [2] was 0.0022 nM and the Kd [3] was 1.5 nM.
